Test results: patent US20200392227A1 (LYVGEN BIOPHARMA, published 2020)
Positions count from the first letter of the chain named. Read-outs that look alike come from different tables or passages of the source. One block for each binder: values may come before it.

Columns and labels:
Assay in all cases: BLI
[1] = target: T1, human FcRIIA protein (MednaBio, E1033) (human, UniProt P12318 34-218, limits assumed)
T1 construct: Bought; also called FcγRIIA
T1 sequence (looked up): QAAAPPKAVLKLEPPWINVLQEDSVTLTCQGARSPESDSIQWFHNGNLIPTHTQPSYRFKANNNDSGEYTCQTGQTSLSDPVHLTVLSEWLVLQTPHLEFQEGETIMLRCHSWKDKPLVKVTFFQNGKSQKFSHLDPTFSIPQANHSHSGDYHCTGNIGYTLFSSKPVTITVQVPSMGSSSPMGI
Protocol: (§1) These IgG mutants were tested for binding to a panel of human Fc receptors (FcRs), including FcRn, using the Octet Red96 System (ForteBio, Model #Red96). Human FcR proteins were purchased commercially (FcRn, MednaBio, E1032; FcRI, MednaBio, E1031; FcRIIA, MednaBio, E1033; FcRIIB/C, MednaBio, E1034; FcRIIIA-F158, MednaBio, E1036; FcRIIIA-V158, MednaBio, E1035; FcRIIIB, MednaBio, E1037). All Fey receptor assays were performed at pH 7.2; all FcRn assays were performed at pH 6. The Fey receptors were loaded onto anti-penta-HIS1K (ForteBio, Cat #18-5122) biosensors at a concentration of 20 μg/mL. The loaded biosensors was then be dipped into an 8-point 1:3 dilution series of the test IgG molecules (including controls and the mutants described herein) in PBS with 0.1% BSA, 0.02% Tween-20 (pH 7.2) at a starting concentration of 300 nM. Kinetic analysis was performed using a 1:1 binding model and global fitting.

[2] = target: T2, human FcRn protein (MednaBio, E1032) (human, UniProt P55899 24-297; P61769 21-119)
T2 construct: Bought; assays at pH 6
Protocol: as §1

[3] = target: T1, human FcRIIA protein (MednaBio, E1033); remark: listed apart in the source
Protocol: as §1

[4] = target: T2, human FcRn protein (MednaBio, E1032); remark: listed apart in the source
Protocol: as §1

[5] = target: T1, human FcRIIA protein (MednaBio, E1033); remark: listed apart in the source
Procedure, shortened: (§2)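 On an Octet Red96 System, anti-penta-HIS biosensors loaded with commercial human Fc receptor proteins were dipped into test IgG diluted 1:3 over 8 points from 300 nM. Fcγ receptor runs used pH 7.2 and FcRn runs used pH 6. Global fitting of these biolayer interferometry data gave the values for Kd, kon and koff, using a 1:1 binding model.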

[6] = target: T2, human FcRn protein (MednaBio, E1032); remark: listed apart in the source
Procedure, shortened: as §2

[7] = target: T1, human FcRIIA protein (MednaBio, E1033); remark: listed apart in the source
Procedure, shortened: as §2

[8] = target: T2, human FcRn protein (MednaBio, E1032); remark: listed apart in the source
Procedure, shortened: as §2

[9] = target: T1, human FcRIIA protein (MednaBio, E1033); remark: listed apart in the source
Procedure, shortened: as §2

[10] = target: T2, human FcRn protein (MednaBio, E1032); remark: listed apart in the source
Procedure, shortened: as §2

[11] = target: T1, human FcRIIA protein (MednaBio, E1033); remark: listed apart in the source
Procedure, shortened: as §2

[12] = target: T2, human FcRn protein (MednaBio, E1032); remark: listed apart in the source
Procedure, shortened: as §2

[13] = target: T3, human FcRI protein (MednaBio, E1031) (human, UniProt P12314 16-288, limits assumed)
T3 construct: Bought; loaded on anti-penta-HIS biosensors; also called FcγRI
Procedure, shortened: as §2

[14] = target: T4, human FcRIIB/C protein (MednaBio, E1034) (human, UniProt P31994 43-217, limits assumed)
T4 construct: Bought as FcRIIB/C; also called FcγRIIB; CD32B
T4 sequence (looked up): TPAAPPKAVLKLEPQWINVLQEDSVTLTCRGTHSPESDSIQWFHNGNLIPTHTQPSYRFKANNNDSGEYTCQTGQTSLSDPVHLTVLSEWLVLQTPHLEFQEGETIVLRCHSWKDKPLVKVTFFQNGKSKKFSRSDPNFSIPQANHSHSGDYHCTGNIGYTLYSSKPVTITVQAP
Procedure, shortened: as §2

[15] = target: T2, human FcRn protein (MednaBio, E1032); remark: listed apart in the source
Procedure, shortened: as §2

[16] = target: T1, human FcRIIA protein (MednaBio, E1033); remark: listed apart in the source
Procedure, shortened: as §2

[17] = target: T3, human FcRI protein (MednaBio, E1031); remark: listed apart in the source
Procedure, shortened: as §2

[18] = target: T4, human FcRIIB/C protein (MednaBio, E1034); remark: listed apart in the source
Procedure, shortened: as §2

[19] = target: T5, human FcRIIIA-F158 protein (MednaBio, E1036) (human, UniProt P08637 17-208)
T5 construct: Bought; also called FcγRIIIA(F)
Procedure, shortened: as §2

[20] = target: T6, human FcRIIIA-V158 protein (MednaBio, E1035) (human, UniProt P08637 17-208)
T6 construct: Bought; also called FcγRIIIA(V); FcgRIIIA(V)
Procedure, shortened: as §2

[21] = target: T7, human FcRIIIB protein (MednaBio, E1037) (human, UniProt O75015 17-200)
T7 construct: Bought; also called FcγRIIIB; FcgRIIIB
Procedure, shortened: as §2

T6 sequence (P08637 17-208 F176V): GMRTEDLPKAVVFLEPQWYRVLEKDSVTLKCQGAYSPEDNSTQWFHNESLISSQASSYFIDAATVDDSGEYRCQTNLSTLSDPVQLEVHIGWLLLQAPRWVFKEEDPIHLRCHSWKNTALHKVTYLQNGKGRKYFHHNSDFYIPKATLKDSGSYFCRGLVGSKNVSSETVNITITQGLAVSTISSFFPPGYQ
T3 sequence (P12314 16-288 limits assumed): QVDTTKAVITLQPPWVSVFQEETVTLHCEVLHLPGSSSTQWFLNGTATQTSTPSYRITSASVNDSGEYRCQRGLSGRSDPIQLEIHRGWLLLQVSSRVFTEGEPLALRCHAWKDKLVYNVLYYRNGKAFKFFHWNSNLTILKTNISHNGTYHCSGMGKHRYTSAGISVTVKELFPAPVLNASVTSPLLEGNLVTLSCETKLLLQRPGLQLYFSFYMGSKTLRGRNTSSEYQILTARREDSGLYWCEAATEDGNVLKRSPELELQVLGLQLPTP
T7 sequence (O75015 17-200 limits assumed): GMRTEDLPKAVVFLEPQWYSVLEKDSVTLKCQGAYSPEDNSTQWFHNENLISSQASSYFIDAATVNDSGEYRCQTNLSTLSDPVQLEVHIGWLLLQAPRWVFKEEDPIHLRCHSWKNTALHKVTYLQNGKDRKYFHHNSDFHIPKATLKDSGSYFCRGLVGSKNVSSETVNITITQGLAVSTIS
T5 sequence (P08637 17-208 limits assumed): as the sequence (P08637 17-208 F176V) above, with V160F counted along it

Kd [1]: 89 nM | koff [1]: 0.039 s⁻¹ | kon [1]: 440000 M⁻¹ s⁻¹ | Kd [2]: 10 nM | koff [2]: 0.0099 s⁻¹ | kon [2]: 990000 M⁻¹ s⁻¹ | Kd [3]: 89 nM | koff [3]: 0.039 s⁻¹ | kon [3]: 440000 M⁻¹ s⁻¹ | Kd [4]: 10 nM | koff [4]: 0.0099 s⁻¹ | kon [4]: 990000 M⁻¹ s⁻¹ | Kd [5]: 89 nM | koff [5]: 0.039 s⁻¹ | kon [5]: 440000 M⁻¹ s⁻¹ | Kd [6]: 10 nM | koff [6]: 0.0099 s⁻¹ | kon [6]: 990000 M⁻¹ s⁻¹ | Kd [7]: 89 nM | koff [7]: 0.039 s⁻¹ | kon [7]: 440000 M⁻¹ s⁻¹ | Kd [8]: 10 nM | koff [8]: 0.0099 s⁻¹ | kon [8]: 990000 M⁻¹ s⁻¹ | Kd [9]: 89 nM | koff [9]: 0.039 s⁻¹ | kon [9]: 440000 M⁻¹ s⁻¹ | Kd [10]: 10 nM | koff [10]: 0.0099 s⁻¹ | kon [10]: 990000 M⁻¹ s⁻¹ | Kd [11]: 89 nM | koff [11]: 0.039 s⁻¹ | kon [11]: 440000 M⁻¹ s⁻¹ | Kd [12]: 10 nM | koff [12]: 0.0099 s⁻¹ | kon [12]: 990000 M⁻¹ s⁻¹
B1: wild-type human IgG2 control (antibody)
heavy: EVQLVQSGAEVKKPGESLRISCKGSGYSFSTYWISWVRQMPGKGLEWMGKIYPGDSYTNYSPSFQGQVTISADKSISTAYLQWSSLKASDTAMYYCARGYGIFDYWGQGTLVTVSSASTKGPSVFPLAPCSRSTSESTAALGCLVKDYFPEPVTVSWNSGALTSGVHTFPAVLQSSGLYSLSSVVTVPSSNFGTQTYTCNVDHKPSNTKVDKTVERKCCVECPPCPAPPVAGPSVFLFPPKPKDTLMISRTPEVTCVVVDVSHEDPEVQFNWYVDGVEVHNAKTKPREEQFNSTFRVVSVLTVVHQDWLNGKEYKCKVSNKGLPAPIEKTISKTKGQPREPQVYTLPPSREEMTKNQVSLTCLVKGFYPSDIAVEWESNGQPENNYKTTPPMLDSDGSFFLYSKLTVDKSRWQQGNVFSCSVMHEALHNHYTQKSLSLSPGK
light: SYELTQPPSVSVSPGQTASITCSGDNIGDQYAHWYQQKPGQSPVLVIYQDKNRPSGIPERFSGSNSGNTATLTISGTQAMDEADYYCATYTGFGSLAVFGGGTKLTVLGQPKAAPSVTLFPPSSEELQANKATLVCLISDFYPGAVTVAWKADSSPVKAGVETTTPSKQSNNKYAASSYLSLTPEQWKSHRSYSCQVTHEGSTVEKTVAPTECS
notes: Control IgG

Kd [13]: 66 nM | koff [13]: 0.025 s⁻¹ | kon [13]: 370000 M⁻¹ s⁻¹ | Kd [14]: 310 nM | koff [14]: 0.039 s⁻¹ | kon [14]: 130000 M⁻¹ s⁻¹ | Kd [15]: 23 nM | koff [15]: 0.01 s⁻¹ | kon [15]: 450000 M⁻¹ s⁻¹
B2: anti-CD137 IgG4 with Fc variant G4m27 (antibody)
heavy: EVQLVQSGAEVKKPGESLRISCKGSGYSFSTYWISWVRQMPGKGLEWMGKIYPGDSYTNYSPSFQGQVTISADKSISTAYLQWSSLKASDTAMYYCARGYGIFDYWGQGTLVTVSSASTKGPSVFPLAPCSRSTSESTAALGCLVKDYFPEPVTVSWNSGALTSGVHTFPAVLQSSGLYSLSSVVTVPSSSLGTKTYTCNVDHKPSNTKVDKRVESKYGPPCPPCPAPEFLGPSVFLFPPKPKDTLMISRTPEVTCVVVDVEQEDPEVQFNWYVDGVEVHNAKTKPREEQFNSTYRVVSVLTVLHQDWLNGKEYKCKVSNKGLPSSIEKTISKAKGQPREPQVYTLPPSQEEMTKNQVSLTCLVKGFYPSDIAVEWESNGQPENNYKTTPPVLDSDGSFFLYSRLTVDKSRWQEGNVFSCSVMHEALHNHYTQKSLSLSLGK
light: B1 light
notes: copies: 2 + 2

Kd [13]: 46 nM | koff [13]: 0.017 s⁻¹ | kon [13]: 380000 M⁻¹ s⁻¹ | Kd [16]: 660 nM | koff [16]: 0.038 s⁻¹ | kon [16]: 57000 M⁻¹ s⁻¹ | Kd [14]: 240 nM | koff [14]: 0.03 s⁻¹ | kon [14]: 130000 M⁻¹ s⁻¹ | Kd [15]: 19 nM | koff [15]: 0.009 s⁻¹ | kon [15]: 480000 M⁻¹ s⁻¹
B3: anti-CD137 IgG4 with Fc variant G4m25 (antibody)
heavy: B2 heavy with E262S, V268E
light: B1 light
notes: copies: 2 + 2

Kd [15]: 13 nM | koff [15]: 0.009 s⁻¹ | kon [15]: 690000 M⁻¹ s⁻¹
B4: anti-CD137 IgG4 with Fc variant G4m19 (antibody)
heavy: EVQLVQSGAEVKKPGESLRISCKGSGYSFSTYWISWVRQMPGKGLEWMGKIYPGDSYTNYSPSFQGQVTISADKSISTAYLQWSSLKASDTAMYYCARGYGIFDYWGQGTLVTVSSASTKGPSVFPLAPCSRSTSESTAALGCLVKDYFPEPVTVSWNSGALTSGVHTFPAVLQSSGLYSLSSVVTVPSSSLGTKTYTCNVDHKPSNTKVDKRVESKYGPPCPPCPAPEFLSVFLFPPKPKDTLMISRTPEVTCVVVDVEQEDPEVQFNWYVDGVEVHNAKTKPREEQFNSTYRVVSVLTVLHQDWLNGKEYKCKVSNKGFPSSIEKTISKAKGQPREPQVYTLPPSQEEMTKNQVSLTCLVKGFYPSDIAVEWESNGQPENNYKTTPPVLDSDGSFFLYSRLTVDKSRWQEGNVFSCSVMHEALHNHYTQKSLSLSLGK
light: B1 light
notes: copies: 2 + 2

Kd [17]: 3.8 nM | koff [17]: 0.0028 s⁻¹ | kon [17]: 720000 M⁻¹ s⁻¹ | Kd [9]: 260 nM | koff [9]: 0.1 s⁻¹ | kon [9]: 390000 M⁻¹ s⁻¹ | Kd [18]: 89 nM | koff [18]: 0.048 s⁻¹ | kon [18]: 530000 M⁻¹ s⁻¹ | binding result [19]: no binding (tested: 300 nM) | binding result [20]: no binding (tested: 300 nM) | binding result [21]: no binding (tested: 300 nM) | Kd [10]: 20 nM | koff [10]: 0.012 s⁻¹ | kon [10]: 610000 M⁻¹ s⁻¹
B5: anti-CD137 IgG4 with Fc variant G4m8 (antibody)
heavy: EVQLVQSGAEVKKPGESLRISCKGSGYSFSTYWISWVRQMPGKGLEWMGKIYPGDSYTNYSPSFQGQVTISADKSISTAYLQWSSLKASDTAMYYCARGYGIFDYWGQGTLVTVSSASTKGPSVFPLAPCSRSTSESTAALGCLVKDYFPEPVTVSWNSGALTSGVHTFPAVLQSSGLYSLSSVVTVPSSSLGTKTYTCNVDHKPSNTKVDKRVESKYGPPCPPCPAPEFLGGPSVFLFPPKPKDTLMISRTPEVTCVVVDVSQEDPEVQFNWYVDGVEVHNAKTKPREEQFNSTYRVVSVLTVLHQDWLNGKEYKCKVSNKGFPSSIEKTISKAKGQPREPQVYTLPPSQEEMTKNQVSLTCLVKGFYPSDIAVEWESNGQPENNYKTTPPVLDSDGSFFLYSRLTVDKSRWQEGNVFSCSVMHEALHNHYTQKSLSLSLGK
light: B1 light
notes: copies: 2 + 2

Kd [17]: 605 nM | koff [17]: 0.0617 s⁻¹ | kon [17]: 102000 M⁻¹ s⁻¹ | Kd [9]: 54.5 nM | koff [9]: 0.0256 s⁻¹ | kon [9]: 469000 M⁻¹ s⁻¹ | Kd [18]: 30.7 nM | koff [18]: 0.0123 s⁻¹ | kon [18]: 401000 M⁻¹ s⁻¹ | Kd [19]: 145 nM | koff [19]: 0.0678 s⁻¹ | kon [19]: 468000 M⁻¹ s⁻¹ | Kd [20]: 202 nM | koff [20]: 0.0596 s⁻¹ | kon [20]: 296000 M⁻¹ s⁻¹ | Kd [21]: 132 nM | koff [21]: 0.0579 s⁻¹ | kon [21]: 437000 M⁻¹ s⁻¹ | Kd [10]: 21.9 nM | koff [10]: 0.0152 s⁻¹ | kon [10]: 698000 M⁻¹ s⁻¹
B6: anti-CD137 IgG4 with Fc variant G4mPE (antibody)
heavy: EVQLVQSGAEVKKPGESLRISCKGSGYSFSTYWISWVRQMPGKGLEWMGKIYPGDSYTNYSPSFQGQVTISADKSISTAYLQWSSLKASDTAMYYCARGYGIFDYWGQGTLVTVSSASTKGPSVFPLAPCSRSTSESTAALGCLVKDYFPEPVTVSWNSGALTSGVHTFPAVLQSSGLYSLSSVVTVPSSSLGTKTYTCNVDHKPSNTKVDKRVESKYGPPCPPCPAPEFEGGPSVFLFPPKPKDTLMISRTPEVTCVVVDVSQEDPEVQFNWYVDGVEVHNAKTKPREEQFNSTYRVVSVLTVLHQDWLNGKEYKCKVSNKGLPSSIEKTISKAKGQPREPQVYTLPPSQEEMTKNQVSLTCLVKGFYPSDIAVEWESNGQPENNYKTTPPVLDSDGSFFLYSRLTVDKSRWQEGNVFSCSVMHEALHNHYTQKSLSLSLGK
light: B1 light
notes: also called G4PE; copies: 2 + 2
